Measured values from publication PMC11196586, “Molecular insight into interactions between the Taf14, Yng1 and Sas3 subunits of the NuA3 complex” (Nature Communications, 2024).
Changes are numbered by the printed parent chain. Names may count otherwise.

T1: Taf14ET (Saccharomyces cerevisiae, UniProt P35189)
T1 construct: Taf14ET (aa 168-243); His; made in house; host or cells: Escherichia coli Rosetta-2 (DE3) pLysS
T1 sequence (P35189 168-243): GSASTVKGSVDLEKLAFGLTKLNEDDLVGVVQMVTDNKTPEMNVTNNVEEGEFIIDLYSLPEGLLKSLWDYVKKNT

T2: Yng1_(EBM-PHD) (aa 100-219 of Yng1) (S. cerevisiae, UniProt Q08465 100-219)
T2 construct: Yng1, S. cerevisiae, UniProt Q08465, EBM coupled to the PHD finger, aa 100-219; source: E. coli Rosetta-2 (DE3) pLysS, purified
T2 sequence (looked up): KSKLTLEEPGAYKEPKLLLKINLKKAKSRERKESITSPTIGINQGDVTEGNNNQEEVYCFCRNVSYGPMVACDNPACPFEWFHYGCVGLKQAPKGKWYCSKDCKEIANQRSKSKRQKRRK

T3: Taf14FL (full length Taf14, aa 1-244) (S. cerevisiae), P35189
T3 chain: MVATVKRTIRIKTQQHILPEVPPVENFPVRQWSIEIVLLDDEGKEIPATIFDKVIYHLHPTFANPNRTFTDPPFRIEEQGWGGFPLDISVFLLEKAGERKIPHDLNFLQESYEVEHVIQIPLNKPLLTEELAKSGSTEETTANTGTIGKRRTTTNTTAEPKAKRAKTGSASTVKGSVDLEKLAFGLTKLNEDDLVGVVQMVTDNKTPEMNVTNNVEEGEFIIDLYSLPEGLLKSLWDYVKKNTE

T4: Taf14FL (full length Taf14, aa 1-244) (S. cerevisiae, UniProt P35189 1-244)
T4 construct: Taf14, S. cerevisiae, UniProt P35189, aa 1-244; uniformly 15N-labelled for NMR; also called transcription initiation factor subunit 14
T4 sequence (looked up): T3 chain

T5: His-Taf14FL (aa 1-244) (S. cerevisiae, UniProt P35189 1-244, labeled using a His-Tag Labeling Kit RED-tris-NTA (2nd Generation))
T5 construct: Taf14, S. cerevisiae, UniProt P35189, aa 1-244; His-tagged form used for MST; source: E. coli Rosetta-2 (DE3) pLysS, purified (Ni-NTA, SEC)
T5 sequence (looked up): T3 chain

B1: Taf14ET (extra-terminal domain of Taf14, aa 168-243) (domain or fragment, S. cerevisiae, UniProt P35189 168-243, looked up)
chain: T1 sequence (P35189 168-243)
notes: Taf14, S. cerevisiae, UniProt P35189, ET domain, aa 168-243; Uniformly 15N-labelled for NMR; also called ET domain of Taf14
B2: I222R Taf14ET: I222R mutant of Taf14ET (aa 168-243 of S. cerevisiae Taf14) (protein, UniProt P35189 168-243, looked up, variant I222R)
chain: T1 sequence (P35189 168-243) with I55R
modifications: ET domain (aa 168-243)
B3: L224R Taf14ET: L224R mutant of Taf14ET (aa 168-243 of S. cerevisiae Taf14) (protein, UniProt P35189 168-243, looked up, variant L224R)
chain: T1 sequence (P35189 168-243) with L57R
modifications: ET domain (aa 168-243)
B4: F220R Taf14ET: F220R mutant of Taf14ET (aa 168-243 of S. cerevisiae Taf14) (protein, UniProt P35189 168-243, looked up, variant F220R)
chain: T1 sequence (P35189 168-243) with F53R
modifications: ET domain (aa 168-243)
B5: Taf14FL (full length Taf14, aa 1-244), P35189 1-244 (natural protein)
chain: T3 chain
B6: Yng1EBM peptide (aa 113-124 of Yng1), Ac-EPKLLLKINLKK-NH2 (peptide)
peptide: Ac-EPKLLLKINLKK-NH2
notes: also called Yng1 peptide; source: synthetic peptide (Synpeptide)
B7: L118D Yng1EBM peptide (aa 113-124 of Yng1) (peptide, UniProt Q08465 113-124, looked up)
peptide: EPKLLDKINLKK
notes: The wild-type peptide is Ac-...-NH2; source: peptide
B8: L116D Yng1EBM peptide (aa 113-124 of Yng1) (peptide, UniProt Q08465 113-124, looked up)
peptide: EPKDLLKINLKK
notes: as for B7
B9: Sas3EBM peptide (aa 111-122 of Sas3), Ac-SEELKVRIKYDS-NH2 (peptide)
peptide: Ac-SEELKVRIKYDS-NH2
notes: Sas3 (something about silencing 3), catalytic subunit of the yeast NuA3 complex, aa 111-122; also called Sas3 peptide; source: synthetic peptide (Synpeptide)
B10: L114D Sas3EBM peptide (aa 111-122 of Sas3) (peptide, UniProt P34218 111-122, looked up)
peptide: SEEDKVRIKYDS
notes: Sas3, yeast, aa 111-122 with L114D; The wild-type peptide is Ac-...-NH2; source: peptide

How the values were obtained:
Taf14FL-601 DNA complex = assay: EMSA of 601 Widom DNA with Taf14FL with or without peptide; format: biochemical, Saccharomyces cerevisiae; conditions: protein preincubated with peptide at 1:2.5 molar ratio; 8% native polyacrylamide gel
Method: (§1) EMSAs were performed by mixing increasing amounts of Taf14 proteins with 0.25 pmol/lane of 601 DNA in 25 mM Tris-HCl pH 7.5, 25-100 mM NaCl, 0.2 mM ethylenediaminetetraacetic acid (EDTA), 10% glycerol and 1 mM DTT in 10 µL reaction volume. The Taf14 proteins were either preincubated with Yng1EBM at a 1:2.5 molar ratio or with Yng1EBM and Sas3EBM at a 1:1:1 molar ratio for a minimum of 1 h on ice or used without peptides prior to addition of DNA. Reaction mixtures were incubated at 4 °C for 10 min (2-2.5 µl of loading dye was added to each sample) and loaded onto an 8% native polyacrylamide gel. Electrophoresis was performed in 0.5x Tris-borate-EDTA (TBE) at 80–120 V on ice. The gels were stained with SYBR Gold (Thermo Fisher Sci) and visualized by Blue LED (UltraThin LED Illuminator-GelCompany).

Taf14YEATS = assay: NMR 1H,15N HSQC titration, Taf14YEATS; format: binding, Saccharomyces cerevisiae; conditions: 298 K
Method: (§2) Nuclear magnetic resonance experiments were performed at 298 K on Varian INOVA 900 MHz (for Taf14FL) and 600 MHz (for Taf14ET and Taf14YEATS) spectrometers equipped with cryogenic probes as described. The NMR samples contained 0.05–0.2 mM uniformly ^15N-labeled Taf14 proteins in 50 mM Tris-HCl (pH 6.8–7.5), 150 mM NaCl, 0–5 mM DTT or 1x PBS (pH 6.6–7.5), supplemented with up to an additional 100 mM NaCl, 0–5 mM DTT or 0.2 mM TCEP and 8-10% D2O. Binding was characterized by monitoring chemical shift changes in ^1H,^15N HSQC spectra of the proteins induced by the addition of wild type or mutated Yng1EBM (aa 113-124), Sas3EBM (aa 111-122) and Yng1EBM-PHD (aa 100-219). NMR data were processed and analyzed using NMRPipe as previously described, with the apparent Kds being determined by a nonlinear least-squares analysis and a 1:1 stoichiometry in GraphPad Prism using the equation:2 Δδ=ΔδmaxL+P+Kd−L+P+Kd^2−4PL/2P Where [L] is the concentration of the peptide, [P] is concentration of the protein, Δδ is the observed chemical shift change, and Δδ max is the normalized chemical shift change at saturation. Normalized chemical shift changes were calculated using the equation δ=ΔδH^2+(ΔδN/5)^2 (3), where Δδ is the change in chemical shift in parts per million (ppm).

Taf14ET-601 DNA complex = assay: EMSA of 601 Widom DNA with Taf14ET with or without peptide; format: biochemical, Saccharomyces cerevisiae; conditions: protein preincubated with peptide at 1:2.5 molar ratio; 8% native polyacrylamide gel
Method: as §1

Taf14ET = molecular target: T1, Taf14ET; assay: NMR 1H,15N HSQC titration (chemical shift perturbations), Taf14ET; format: binding; conditions: 15N-labelled Taf14ET, 298 K, increasing amounts of mutated peptide
Method: as §2

[1] = molecular target: T2, Yng1_(EBM-PHD) (aa 100-219 of Yng1); assay: NMR titration; 1H,15N HSQC of 0.05-0.2 mM 15N-labeled Taf14 proteins, 298 K, unlabeled peptide or Yng1EBM-PHD added; Tris-HCl or PBS, pH 6.6-7.5; apparent Kd from CSPs, 1:1 stoichiometry; conditions: both partners purified
[2] = molecular target: the molecule itself; assay: crystal structure; Taf14ET co-crystallized with Yng1EBM peptide (molar ratio 1:2.5); 40% PEG 400, 0.1 M Tris pH 8.5, 0.2 M LiSO4; 1.9 Å
[3] = format: physicochemical, Saccharomyces cerevisiae
Text: The S. cerevisiae Taf14FL (aa 1-244) (UniProt code P35189), Taf14YEATS (aa 1-137), Taf14ET (aa 168-243) and Yng1EBM-PHD (aa 100-219) (UniProt code Q08465) were cloned into pGEX-6P1, pET22b or pCIOX vectors. The F220R, I222R and L224R mutants of Taf14ET were generated using QuikChange II site directed mutagenesis kit (Agilent). Sequences were confirmed by DNA sequencing. All proteins were expressed in Escherichia coli Rosetta-2 (DE3) pLysS cells grown in either Terrific Broth, Luria Broth or in minimal media supplemented with ^15NH4Cl (Sigma). Protein production was induced with 0.3 mM IPTG for 18 h at 16 °C. Bacteria were harvested by centrifugation and lysed by sonication. GST-fusion proteins were purified on glutathione agarose 4B beads (Thermo Fisher Sci). The GST-tag was cleaved with either PreScission or tobacco etch virus (TEV) protease. After cleavage, Taf14FL and Taf14YEATS retained the pGEX-6P1vector-derived residues Gly and Pro. His-fusion proteins were incubated with Ni-NTA resin (ThermoFisher), washed and eluted with a gradient of imidazole. When necessary, removal of the His-tag was completed during an overnight dialysis, while incubating the protein with ULP1 protease. […]
Nuclear magnetic resonance experiments were performed at 298 K on Varian INOVA 900 MHz (for Taf14FL) and 600 MHz (for Taf14ET and Taf14YEATS) spectrometers equipped with cryogenic probes as described. […] NMR data were processed and analyzed using NMRPipe as previously described, with the apparent Kds being determined by a nonlinear least-squares analysis and a 1:1 stoichiometry in GraphPad Prism using the equation:2 Δδ=ΔδmaxL+P+Kd−L+P+Kd^2−4PL/2P Where [L] is the concentration of the peptide, [P] is concentration of the protein, Δδ is the observed chemical shift change, and Δδ max is the normalized chemical shift change at saturation. Normalized chemical shift changes were calculated using the equation δ=ΔδH^2+(ΔδN/5)^2 (3), where Δδ is the change in chemical shift in parts per million (ppm).

[4] = molecular target: T3, Taf14FL (full length Taf14, aa 1-244) …; assay: mass photometry; Taf14FL with Yng1EBM (1:1 molar ratio), final 100 nM, room temperature, 50 mM Tris pH 7.5, 150 mM NaCl, 1 mM TCEP; conditions: remark: other sources report otherwise
[5] = molecular target: T4, Taf14FL (full length Taf14, aa 1-244); assay: other fluorescence titration; tryptophan fluorescence, 25 °C; 1 μM Taf14ET or Taf14FL, increasing peptide; 50 mM Tris-HCl pH 6.8 or 7.5, 150 mM NaCl, 1 mM DTT or 0.2 mM TCEP; excitation 295 nm; apparent Kd, 1:1 stoichiometry; conditions: both partners purified
[6] = molecular target: B1; assay: as above; conditions: both partners purified
His-Taf14FL (aa 1-244) = molecular target: T5, His-Taf14FL (aa 1-244); assay: MST; His-tagged Taf14 labeled with RED-tris-NTA, kept at 10 nM; unlabeled peptide added stepwise; 20 mM Tris-HCl pH 7.5, 150 mM NaCl, 2.5 mM DTT or 0-0.2 mM TCEP; apparent Kd, 1:1 stoichiometry; conditions: both partners purified
[7] = molecular target: T4, Taf14FL (full length Taf14, aa 1-244); assay: other fluorescence titration; tryptophan fluorescence of Taf14FL with Yng1EBM in the presence of H3K9cr peptide at a 1:10 Taf14FL:H3K9cr molar ratio; apparent Kd, 1:1 stoichiometry; conditions: both partners purified
[8] = molecular target: B1; assay: NMR titration; 1H,15N HSQC of 0.05-0.2 mM 15N-labeled Taf14 proteins, 298 K, unlabeled peptide or Yng1EBM-PHD added; Tris-HCl or PBS, pH 6.6-7.5; apparent Kd from CSPs, 1:1 stoichiometry; conditions: both partners purified

Molecule: Ac-EPKLLLKINLKK-NH2 [Yng1EBM]
- effect of peptide on binding of Taf14FL to 601 DNA (EMSA) (Taf14FL-601 DNA complex): enhanced
- CSPs induced in 15N-labeled Taf14YEATS (Taf14YEATS): No CSPs
- effect of peptide on DNA binding activity of isolated Taf14ET (EMSA) (Taf14ET-601 DNA complex): increased

Molecule: I120D Yng1EBM: Yng1EBM peptide with I120 replaced with aspartate (EPKLLLKDNLKK)
- binding of wild type Taf14ET judged by CSPs in 1H,15N HSQC spectra (Taf14ET): almost negligible CSPs

Molecule: V116D Sas3EBM: Sas3EBM peptide with single point substitution V116D (SEELKDRIKYDS)
- binding of wild type Taf14ET judged by CSPs in 1H,15N HSQC spectra (Taf14ET): abrogated binding

Molecule: I118D Sas3EBM: Sas3EBM peptide with single point substitution I118D (SEELKVRDKYDS)
- binding of wild type Taf14ET judged by CSPs in 1H,15N HSQC spectra (Taf14ET): abrogated binding

Molecule: B1
- binding result [1]: binds
- stoichiometry N [2]: 2

Molecule: B2
- stability of mutated Taf14ET protein [3]: unstable

Molecule: B3
- stability of mutated Taf14ET protein [3]: unstable

Molecule: B4
- stability of mutated Taf14ET protein [3]: unstable

Molecule: B5
- stoichiometry N [4]: 2

Molecule: B6
- Kd [5]: 1.1 µM
- Kd [6]: 0.6 µM
- Kd (His-Taf14FL (aa 1-244)): 1.2 µM
- stoichiometry N [2]: 2
- Kd [7]: 0.9 µM

Molecule: B7
- Kd [8]: 430 µM

Molecule: B8
- Kd [8]: 180 µM

Molecule: B9
- Kd [5]: 21 µM
- Kd [6]: 18 µM

Molecule: B10
- Kd [8]: 540 µM
